Where “and” joins values, the source holds several entries; their conditions need not be identical. Identical values can stand only once.
Columns and labels:
Assay in all cases: radioligand binding
[1] = target: Englebreth-Holm sarcoma laminin (UniProt P19137)
collagen type III = collagen type III (UniProt P02461)
collagen type IV = collagen type IV (UniProt P02462)
collagen type IX = collagen type IX (UniProt P20849)
collagen type V = collagen type V (UniProt P20908)
[2] = target: laminin and collagen type IV (isotonic conditions with Ca2+)

UniProt P02461, sequence (P02461 24-1221): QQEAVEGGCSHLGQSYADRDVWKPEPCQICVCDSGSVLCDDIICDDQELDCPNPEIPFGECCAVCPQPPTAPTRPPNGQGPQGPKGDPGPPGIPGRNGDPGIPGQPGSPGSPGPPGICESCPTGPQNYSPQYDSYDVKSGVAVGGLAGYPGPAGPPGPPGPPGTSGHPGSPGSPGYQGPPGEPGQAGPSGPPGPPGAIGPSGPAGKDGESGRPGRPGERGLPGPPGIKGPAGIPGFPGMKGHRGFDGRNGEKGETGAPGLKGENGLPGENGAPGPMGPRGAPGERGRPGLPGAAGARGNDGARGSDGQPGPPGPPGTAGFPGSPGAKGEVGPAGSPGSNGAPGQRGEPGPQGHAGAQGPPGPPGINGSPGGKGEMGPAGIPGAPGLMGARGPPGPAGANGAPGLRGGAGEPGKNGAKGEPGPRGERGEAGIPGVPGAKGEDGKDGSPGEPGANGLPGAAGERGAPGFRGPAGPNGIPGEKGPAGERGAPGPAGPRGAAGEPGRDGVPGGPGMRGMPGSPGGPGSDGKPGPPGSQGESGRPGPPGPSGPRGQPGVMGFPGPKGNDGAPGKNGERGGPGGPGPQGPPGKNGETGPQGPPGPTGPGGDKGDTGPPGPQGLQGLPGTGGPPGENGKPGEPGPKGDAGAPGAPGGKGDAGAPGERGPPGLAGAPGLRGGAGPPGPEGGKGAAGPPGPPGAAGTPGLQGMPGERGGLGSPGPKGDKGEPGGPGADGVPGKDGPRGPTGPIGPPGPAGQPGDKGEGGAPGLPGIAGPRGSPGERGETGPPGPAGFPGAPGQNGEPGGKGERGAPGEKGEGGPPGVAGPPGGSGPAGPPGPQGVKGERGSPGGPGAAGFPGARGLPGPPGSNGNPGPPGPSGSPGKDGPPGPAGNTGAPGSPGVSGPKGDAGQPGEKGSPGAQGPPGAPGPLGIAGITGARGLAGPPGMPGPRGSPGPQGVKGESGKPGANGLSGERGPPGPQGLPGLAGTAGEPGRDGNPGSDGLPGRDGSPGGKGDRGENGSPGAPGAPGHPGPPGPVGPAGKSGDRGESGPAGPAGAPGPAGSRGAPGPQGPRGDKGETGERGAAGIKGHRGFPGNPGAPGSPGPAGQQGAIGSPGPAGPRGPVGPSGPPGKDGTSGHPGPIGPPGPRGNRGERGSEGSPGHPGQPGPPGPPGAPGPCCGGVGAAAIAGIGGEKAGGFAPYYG
UniProt P20908, sequence (P20908 38-1605, chain 1 of 2): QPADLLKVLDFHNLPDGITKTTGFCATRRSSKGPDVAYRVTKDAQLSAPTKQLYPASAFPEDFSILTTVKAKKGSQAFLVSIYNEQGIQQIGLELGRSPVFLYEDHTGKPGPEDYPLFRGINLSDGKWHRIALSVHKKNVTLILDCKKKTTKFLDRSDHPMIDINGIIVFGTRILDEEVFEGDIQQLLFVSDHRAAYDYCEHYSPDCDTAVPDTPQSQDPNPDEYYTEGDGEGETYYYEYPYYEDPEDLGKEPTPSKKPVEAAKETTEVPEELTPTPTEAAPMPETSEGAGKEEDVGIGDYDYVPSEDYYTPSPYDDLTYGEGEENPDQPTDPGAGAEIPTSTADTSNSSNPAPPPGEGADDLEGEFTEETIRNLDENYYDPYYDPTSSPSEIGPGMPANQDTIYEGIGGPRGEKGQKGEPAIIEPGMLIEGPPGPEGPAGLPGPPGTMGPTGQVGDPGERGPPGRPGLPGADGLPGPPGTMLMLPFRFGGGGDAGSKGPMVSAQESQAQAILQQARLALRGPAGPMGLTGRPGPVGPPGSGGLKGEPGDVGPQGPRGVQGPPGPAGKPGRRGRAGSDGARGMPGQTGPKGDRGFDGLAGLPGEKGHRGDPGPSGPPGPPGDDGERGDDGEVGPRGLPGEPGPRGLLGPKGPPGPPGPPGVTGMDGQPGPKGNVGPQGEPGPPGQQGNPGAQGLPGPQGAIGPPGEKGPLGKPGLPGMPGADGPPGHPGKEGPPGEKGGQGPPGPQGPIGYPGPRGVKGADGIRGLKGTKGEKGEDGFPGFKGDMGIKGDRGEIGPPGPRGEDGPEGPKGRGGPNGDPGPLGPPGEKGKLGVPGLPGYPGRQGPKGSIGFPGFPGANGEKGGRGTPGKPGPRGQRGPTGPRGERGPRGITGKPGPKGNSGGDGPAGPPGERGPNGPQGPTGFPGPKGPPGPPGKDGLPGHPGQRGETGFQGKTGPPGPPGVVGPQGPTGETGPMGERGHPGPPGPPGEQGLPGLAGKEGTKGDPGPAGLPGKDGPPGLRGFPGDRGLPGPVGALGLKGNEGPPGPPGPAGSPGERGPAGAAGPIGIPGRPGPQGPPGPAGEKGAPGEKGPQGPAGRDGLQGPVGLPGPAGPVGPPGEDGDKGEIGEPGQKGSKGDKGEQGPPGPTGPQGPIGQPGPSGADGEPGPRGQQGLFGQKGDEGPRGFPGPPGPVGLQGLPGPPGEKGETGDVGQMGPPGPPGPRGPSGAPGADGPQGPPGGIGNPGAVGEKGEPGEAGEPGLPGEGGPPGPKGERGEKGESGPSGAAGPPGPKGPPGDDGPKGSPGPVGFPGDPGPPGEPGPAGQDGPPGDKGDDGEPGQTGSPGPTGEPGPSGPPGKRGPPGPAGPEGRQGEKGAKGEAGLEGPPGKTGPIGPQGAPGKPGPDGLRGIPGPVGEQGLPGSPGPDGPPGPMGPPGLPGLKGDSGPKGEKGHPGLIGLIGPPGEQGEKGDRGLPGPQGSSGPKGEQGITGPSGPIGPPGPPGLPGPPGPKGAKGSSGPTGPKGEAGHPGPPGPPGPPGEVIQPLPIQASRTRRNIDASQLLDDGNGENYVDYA
UniProt P20908, sequence (P05997 27-1229, chain 2 of 2, further chain): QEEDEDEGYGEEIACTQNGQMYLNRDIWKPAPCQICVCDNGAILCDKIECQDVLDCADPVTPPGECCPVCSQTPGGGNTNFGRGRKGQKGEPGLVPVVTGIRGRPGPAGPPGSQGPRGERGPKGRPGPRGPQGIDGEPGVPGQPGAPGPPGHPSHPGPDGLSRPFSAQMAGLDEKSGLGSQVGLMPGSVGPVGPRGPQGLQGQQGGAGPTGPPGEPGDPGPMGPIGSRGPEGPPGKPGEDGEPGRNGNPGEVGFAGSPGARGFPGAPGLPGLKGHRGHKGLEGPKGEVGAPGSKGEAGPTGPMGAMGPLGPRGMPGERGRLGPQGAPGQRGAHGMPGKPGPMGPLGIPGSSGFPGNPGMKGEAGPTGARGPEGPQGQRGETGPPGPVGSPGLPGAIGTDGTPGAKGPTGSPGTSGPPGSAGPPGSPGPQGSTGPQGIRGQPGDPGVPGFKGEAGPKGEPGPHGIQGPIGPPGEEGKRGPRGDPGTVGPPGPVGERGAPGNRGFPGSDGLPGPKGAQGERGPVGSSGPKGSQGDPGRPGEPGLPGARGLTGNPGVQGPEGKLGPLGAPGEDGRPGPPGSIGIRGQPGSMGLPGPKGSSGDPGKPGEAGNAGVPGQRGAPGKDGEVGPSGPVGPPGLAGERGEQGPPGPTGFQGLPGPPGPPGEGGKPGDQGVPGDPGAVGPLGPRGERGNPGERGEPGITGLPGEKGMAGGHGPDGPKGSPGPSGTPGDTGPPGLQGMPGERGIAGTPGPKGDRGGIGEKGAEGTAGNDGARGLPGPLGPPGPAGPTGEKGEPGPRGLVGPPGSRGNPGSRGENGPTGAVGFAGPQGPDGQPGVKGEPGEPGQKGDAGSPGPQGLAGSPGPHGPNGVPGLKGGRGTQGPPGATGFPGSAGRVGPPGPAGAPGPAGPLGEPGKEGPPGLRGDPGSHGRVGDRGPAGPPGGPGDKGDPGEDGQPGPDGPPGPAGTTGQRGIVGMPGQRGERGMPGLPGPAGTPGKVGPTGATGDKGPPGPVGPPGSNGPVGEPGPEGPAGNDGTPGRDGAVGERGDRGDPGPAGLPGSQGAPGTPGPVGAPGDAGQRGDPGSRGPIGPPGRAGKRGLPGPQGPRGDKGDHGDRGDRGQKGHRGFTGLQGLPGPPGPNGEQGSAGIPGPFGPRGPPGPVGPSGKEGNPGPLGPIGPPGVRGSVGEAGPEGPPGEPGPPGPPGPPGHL

astrochondrin (natural protein)
fold binding over binding to BSA [1]: 3.5 fold
percent of the total input bound [1]: 15%
fold binding over binding to BSA (collagen type III): 10 fold
percent of the added astrochondrin bound (collagen type III): < 40%
percent of the total input bound (collagen type III): < 80%
percent of the total input bound at 15 mM NaCl (collagen type III): 30%
fold binding over binding to BSA (collagen type IV): < 7 fold
percent of the total input bound (collagen type IV): 30%
fold binding over binding to BSA (collagen type IX): < 7 fold
percent of the total input bound (collagen type IX): 30%
fold binding over binding to BSA (collagen type V): 10 fold
percent of the added astrochondrin bound (collagen type V): < 40%
percent of the total input bound (collagen type V): < 80%
percent of the total input bound at 15 mM NaCl (collagen type V): 30%
fold binding over binding to BSA [2]: 5 fold and 7 fold

From publication PMC2119541
